What was measured:
[1] = biological target: T1, RSV postfusion F (postF), subtype B (respiratory syncytial virus subtype B); assay: BLI, IgG
T1 construct: also called Postfusion subtype B

[2] = biological target: RSV F on RSV subtype A virus (mKate-RSV A2) (respiratory syncytial virus A2, UniProt P03420 26-574); assay: cell-based or functional assay
[3] = biological target: T2, RSV postfusion F (postF), subtype A (respiratory syncytial virus subtype A, UniProt P03420 26-513); assay: BLI, IgG
T2 construct: also called Postfusion subtype A; F deltaFP

[4] = biological target: T3, RSV prefusion F (preF), subtype B (respiratory syncytial virus subtype B); assay: BLI, IgG
T3 construct: also called Prefusion subtype B

[5] = biological target: T2, RSV postfusion F (postF), subtype A; assay: BLI

Binder	Kd [1] [nM]	Neut IC50 subtype A [2] [µg/mL]	Kd [3] [nM]	Kd [4] [nM]	binding result [5]
ADI-25575 (antibody, V domains shown, full-length IgG) VH: EVQLVESGAEVKKPGASVKVSCKASGYTFTSYYMHWVRQAPGQGLEWMGIINPSGGSTSYAQKFQGRVTMTRDTSTSTVYMELSSLRSEDTAVYYCARGPYDSSGYCDYWGQGTLVTVSS VL: SYELTQPPSVSVAPGKTARITCGGNNIGSKSVHWYQQKPGQAPVLVVYDDSDRPSGIPERFSGSNSGNTATLTISRVEAGDEADYYCQVWDSSSDQVFGGGTKLTVL	39.6	5.64			
ADI-24803 (antibody, V domains shown, full-length IgG) VH: EVQLLESGGGLVLPGGSLRLSCAASGFTFSSYAMSWVRQAPGKGLEWVSAISGSGIYTYYADSVKGRFTISRDNSKNTLYLQMSSLRAEDTAVYYCAKGSLGMAYSAFDIWGLGTTVTVSS VL: DIQLTQSPGTLSLSSGERATLSCRASQSVSSNYLAWYQQKPGQPPRLLIYGASSRATGIPDRFSGSGSGTDFTLTISRLEPEDFAVYYCQQYGSSPLTFGGGTKVDIK	0.442		1.2		
ADI-24825 (antibody, V domains shown, full-length IgG) VH: QVQLVQSGAEVKKPGASVKVSCKASGYTFTSYDINWVRQATGQGLEWMGWMNPNSGNTGYAQKFQGRVTMTRNTSISTAYMELSSLRSEDTAVYYCSSVGGYYYYGMDVWGQGTTVTVSS VL: not shown	26		30.1		
ADI-24834 (antibody, V domains shown, full-length IgG) VH: QVQLVQSGGGLVQPGGSLRLSCAASGFTFSSYAMSWVRQAPGKGLEWVSTISGSGGSTYYADSVKGRFTISRDNSKNTLYLQMNSLRAEDTAVYYCATWKRWGSGYYYSYMDVWGKGTTVTVSS VL: not shown	0.26		0.211	0.732	
ADI-24846 (antibody, V domains shown, full-length IgG) VH: EVQLLESGGGLVKPGGSLRLSCAASGFTFSSYSMNWVRQAPGKGLEWVSSISSSSSYIYYADSVKGRFTISRDNAKNSLYLQMNSLRAEDTAVYYCARDDGILWLDYWGQGTLVTVSS VL: not shown	29.1				no binding
ADI-24852 (antibody, V domains shown, full-length IgG; also called Ab 413) VH: QVQLVESGAEVKKPGASVKVSCKASGYTFTSYAIHWVRQAPGQRLEWMGWINAGNGNTKYSQKFQGRVTITRDTSASTAYMELSSLRSEDTAVYYCASEESGYFDYWGQGTLVTVSS VL: not shown	9.17		9.57	19	
ADI-19476 (antibody, V domains shown, full-length IgG) VH: QVQLVESGPTLVKPTQTLTLTCTFSGFSLSTSRVGVGWIRQPPGKALEWLALIYWDDDKRYSPSLKSRLTITKDTSKNQVVLTMTNMDPVDTARYYCAHRSTYDILGGYYYFDYWGQGTLVTVSS VL: QPVLTQPRSVSGSPGQSVTISCTGTSSDVGGYNYVSWFQQHPGKAPKLMIYDVSKRPSGVPNRFSGSKSGNTASLTISGLQAEDEADYFCCSYAGTYEVFGGGTKLTVL	0.838		0.801		
ADI-19479 (antibody, V domains shown, full-length IgG) VH: QVQLVQSGAEVKKPGSSVKVSCKASGGTFSSNAINWVRQAPGQGLEWMGGIIPIFGTANYAQKFQGRVTITTDESTSTAYMELSSLRSEDTAVYYCATTFYYGSGADYWGQGTLVTVSS VL: DIQMTQSPLSLPVTLGQPASISCRSSQSLVYSDGNMYLSWFQQRPGQSPRRLIYKVSNRDSGVPDRFSGSGSGTDFTLKISRVEAEDVGVYYCMQGTHWWTFGQGTKVEIK	2.69		3.69		
ADI-19483 (antibody, V domains shown, full-length IgG) VH: QVQLVQSGAEVKKPGESLKISCKGSGYSFTTYWIGWVRQMPGKGLEWMGIIFPGDSDTRYSPSFQGQVTISADKSISTAYLQWSSLKASDTAMYFCARSAFPFGFDIWGQGTMVTVSS VL: SYVLTQPHSVSESPGKTVTISCTRSSGSIASNYVQWYQQRPGSSPTTVIYEDHQRPSGVPDRFSGSIDSSSNSASLTISGLQTEDEADYYCQSYGSGNPWVFGGGTKVTVL	0.153		0.321	1.77	
ADI-19484 (antibody, V domains shown, full-length IgG) VH: QVQLQESGSGLVKPSQTLSLTCVVSGGSISSGGNSWSWIRQPPGKGLEWIGYIYDSGNTYYNPSLKSRVTISVDRSKNQFSLKVSSVTAADTAVYYCARGAETGTTGWYDPWGQGTLVTVSS VL: DIRLTQSPSSLSASVGDRVTITCRASQTISSYLNWYQQKPGKAPRLLIYAASSLQSGVPSRFSGSGSGTDFTLTISSLQPEDFATYYCQQSYGTPRTFGQGTKVEIK	0.355		0.369	8.92	
ADI-19486 (antibody, V domains shown, full-length IgG) VH: QVQLQESGPGLVKPSETLSLTCSVSGGSLTSYYWSWIRQPPGKGLEWIGYIYYSGSTNYNPSLKSRLTISVDTSKNQFSLKLSSVTAADTAVYYCARVGGRGVINVFDYWGQGTLVTVSS VL: QPVLTQPASVSGSPGQSITISCTGTSSDVGGYNYVSWYQQHPGKAPKLMIYEVSNRPSGVSNRFSGSKSGNTASLTISGLQAEDEADYYCDSYRSNSASVVFGGGTKLTVL	7.55		0.525		
ADI-25467 (antibody, V domains shown, full-length IgG) VH: GVQLVESGPGLVKPSETLSLTCTVSGGSISSYYWSWIRQPPGKGLEWIGYIYYSGSTNYNPSLKSRVTISVDTSKNQFSLKLSSVTAADTAVYYCARGYYYDSSGYYPNDAFDIWGQGTMVTVSS VL: not shown	26.2		25.3		
ADI-19505 (antibody, V domains shown, full-length IgG) VH: QVQLVQSGAEVKKPGESLKISCKGSGYSFTNYWIGWVRQMPGKGLEWMGITYPGDSDTRYSPSFQGQVTISADKSISTAHLQWDSLKASDTAMYYCARLRCTGSICYDAFDIWGQGTTVTVSS VL: SYVLTQPLSVSVALGQTARITCGGNNIGSKNVHWYQQKPGQAPVLVIYRDNNRPSGIPERFSGSNSGNTATLTISRAQAGDEADYYCQVWDSSTGGDVFGAGTKVTVL	5.01		4.94	44.4	
ADI-22760 (antibody, V domains shown, full-length IgG; also called Ab 340) VH: EVQLVESGGGLVQPGRSLRLSCVASGFTFDDYAMHWVRQAPGKGLEWVSGINWNSGGIGYADSVKGRFTISRDNTKNSLYLQMNSLRAEDTALYYCAKDGSALMGYGVEVWGQGTTVTVSS VL: SYELTQPPSASGTPGQRVTISCSGSNSNIGNNYVYWYQQLPGTAPKLLIYRNNQWPSGVPDRFSASKSGTSASLAISGLRSEDEADYYCASWDDSLSALVFGGGTKLTVL	1.25		1.19	3.07	
ADI-22763 (antibody, V domains shown, full-length IgG) VH: EVQLVESGGGLIQPGGSLRLSCAASGFTFSTYEMNWVRQAPGKGLEWVSSISTSGSTKDYAGSVKGRFTVSRDNAKNSLYLQMNSLRAEDTAIYYCARVYYYDSSGYYLALFDYWGQGTLVTVSS VL: EIVLTQSPSSLSASVGDRVTITCRASQSIASYLNWYQQKPGKAPKLLIYAASSLRSGVPSRFSGSGSGTDFTLTISSLQPEDFATYYCQQSYSTPSLTFGGGTKLEIK	5.33		0.319	10.8	
ADI-22764 (antibody, V domains shown, full-length IgG) VH: QVQLVESGPGLVRPSGTLSLTCAVSGGSISGKNWWSWVRQPPGKGLEWIGEIDHSGSTNYNPSLKSRVTISVDKSKNQFSLKLSSVTAADTAVYYCARTGLYDSSGYYLYYFNYWGQGTLVTVSS VL: EIVMTQSPSSLSASVGDRVTISCRASQTIASYVNWYQQRPGKAPNLLIFAASNLQTGVPSRFRGSGSGTVFTLTISSLQPEDFATYYCQQSYSTPRTFGQGTKVDIK	1.44		0.334	1.42	
ADI-22772 (antibody, V domains shown, full-length IgG) VH: EVQLVESGGGVVQPGRSLRLSCAASGFTFSSYAMHWVRQAPGKGLEWVAVISYDGSNKYYADSVKGRFTISRDNSKNTLYLQMNSLRAEDTAVYYCARAVEQQLFIWYYGMDVWGQGTTVTVSS VL: not shown	50.2				no binding
ADI-22777 (antibody, V domains shown, full-length IgG) VH: QVQLVQSGAEVKRPGASVKVSCKASEYTFNFHDINWVRQAPGQGLEWMGWMNPKSGNTGYAQKFQGRVTMTRDTSKNTAYLELSSLRSEDTAVYYCARGYGTSWSSDSWWGQGTLVTVSS VL: SYELTQLPSVSVSPGQTARITCSGDALSKQFVYWYQQKPGLAPMLVIYKDTNRPSWIPERFSGSGSGTTATLTISEVQAEDEADYYCQSVDNSGTYGWVFGGGTKVTVL	0.224		0.268	0.762	
ADI-14372 (antibody, V domains shown, full-length IgG; also called Ab 40) VH: QVQLLESGGGLVQPGGSLRLSCAASGFTFSNYAMGWVRQAPGQGLEWVSRISATGGSTHYADSVRGRFTISRDNSKNTLYLQMNSLKAEDTAVYYCAKDRGYSRNLTPDYWGQGTLVTVSS VL: ETTLTQSPSSLSASVGDRVTITCRASQGITNDLGWYQKKPGKAPKLLIYVASSLQSGVPSRFSGSGSGTDFTLTISSLQPEDFATYYCLQDYNYPITFGQGTKVDIK	4.43		0.659		
ADI-14379 (antibody, V domains shown, full-length IgG; also called Ab 47) VH: EVQLLESGGGVVQPGRSLRLSCAASGFTFSSYAMHWVRQAPGKGLEWVAVIGNDGTNKYHADSVKGRFTISRDNSKNTLYLQMNSLRAEDTAVYYCARRRVGIMYSGSYWGGMDVWGQGTTVTVSS VL: SYELTQPPSVSVSPGQTASITCSGDKLGGKYVSWYQQKPGQSPVLVMYQDTRRPSGIPERLSGSNSGSTATLTISATQAMDEADYYCQAWDITTVHVVFGGGTKLTVL	2.35		3.29		
ADI-25587 (antibody, V domains shown, full-length IgG) VH: QVQLVESGGGVVQPGRSLRLSCAASGFTFSSYGMHWVRQAPGKGLEWVAVIWYDGSNKYYADSVKGRFTISRDNSKNTLYLQMNSLRAEDTAVYYCARDSTYSEAFDIWGQGTMVTVSS VL: QSVLIQPASVSGSPGQSITISCTGTSSDVGGYNYVSWYQQHPGKAPKLMIYDVSNRPSGVSNRFSGSKSGNTASLTISGLQAEDEADYYCSSYTSSSTWVFGGGTKVTVL	7.93		9.23		

Reference: patent US20260258115A1 (MAPP BIOPHARMACEUTICAL, published 2026)
